This is an account of results in paper PMC10585736 (2023).

B1: Pol30p (PCNA), wild type, of the POL30-0 strain [S. cerevisiae] / Rrm3p-Myc [S. cerevisiae] (parent complex)
chain 1: MLEAKFEEASLFKRIIDGFKDCVQLVNFQCKEDGIIAQAVDDSRVLLVSLEIGVEAFQEYRCDHPVTLGMDLTSLSKILRCGNNTDTLTLIADNTPDSIILLFEDTKKDRIAEYSLKLMDIDADFLKIEELQYDSTLSLPSSEFSKIVRDLSQLSDSINIMITKETIKFVADGDIGSGSVIIKPFVDMEHPETSIKLEMDQPVDLTFGAKYLLDIIKGSSLSDRVGIRLSSEAPALFQFDLKSGFLQFFLAPKFNDEE
chain 2: MFRSHASGNKKQWSKRSSNGSTPAASASGSHAYRQQTLSSFFMGCGKKSAAASKNSTTIIDLESGDEGNRNITAPPRPRLIRNNSSSLFSQSQGSFGDDDPDAEFKKLVDVPRLNSYKKSSRSLSMTSSLHKTASASTTQKTYHFDEDETLREVTSVKSNSRQLSFTSTINIEDSSMKLSTDSERPAKRSKPSMEFQGLKLTVPKKIKPLLRKTVSNMDSMNHRSASSPVVLTMEQERVVNLIVKKRTNVFYTGSAGTGKSVILQTIIRQLSSLYGKESIAITASTGLAAVTIGGSTLHKWSGIGIGNKTIDQLVKKIQSQKDLLAAWRYTKVLIIDEISMVDGNLLDKLEQIARRIRKNDDPFGGIQLVLTGDFFQLPPVAKKDEHNVVKFCFESEMWKRCIQKTILLTKVFRQQDNKLIDILNAIRYGELTVDIAKTIRNLNRDIDYADGIAPTELYATRREVELSNVKKLQSLPGDLYEFKAVDNAPERYQAILDSSLMVEKVVALKEDAQVMMLKNKPDVELVNGSLGKVLFFVTESLVVKMKEIYKIVDDEVVMDMRLVSRVIGNPLLKESKEFRQDLNARPLARLERLKILINYAVKISPHKEKFPYVRWTVGKNKYIHELMVPERFPIDIPRENVGLERTQIPLMLCWALSIHKAQGQTIQRLKVDLRRIFEAGQVYVALSRAVTMDTLQVLNFDPGKIRTNERVKDFYKRLETLK

In this assay the parent is B1. Nature of the assay: co-immunoprecipitation, western blot band quantification; α-Myc IP; parent: 2.1; read off a plot.
For chain 1 L126A, chain 1 I128A, the response was ~1.8 pixel density fold over input signal.
